Consider 1 protein from paper PMC4493562, “Mechanistic studies of a novel C-S lyase in ergothioneine biosynthesis: the involvement of a sulfenic acid intermediate” (Scientific Reports, 2015).

What is called Km is the concentration of substrate that gives half-maximal velocity. By kcat is commonly meant the number of substrate molecules converted per active site and unit of time at saturation.

Substrate in data set [1]: C[N+](C)(C)[C@@H](Cc1cnc([S+]([O-])C[C@H](N)C(=O)O)[nH]1)C(=O)[O-]
Description: purified protein. Format: biochemical, Mycolicibacterium smegmatis. The settings on record: 50 mM KPi pH 8.0, 1.0 mM DTT, 10 nM EgtE, 0.13 mM NADH, LDH.

Substrate in data set [2]: C[N+](C)(C)[C@@H](Cc1cnc(SC[C@H](N)C(=O)O)[nH]1)C(=O)[O-]
Description: purified protein. Format: biochemical, Mycolicibacterium smegmatis. As to conditions: 50 mM KPi pH 8.0, 1.0 mM DTT, 10 nM EgtE, 0.13 mM NADH, LDH.

B1: EgtE (Mycolicibacterium smegmatis MC2 155) (protein)
chain: MMLAQQWRDARPKVAGLHLDSGACSRQSFAVIDATTAHARHEAEVGGYVAAEAATPALDAGRAAVASLIGFAASDVVYTSGSNHAIDLLLSSWPGKRTLACLPGEYGPNLSAMAANGFQVRALPVDDDGRVLVDEASHELSAHPVALVHLTALASHRGIAQPAAELVEACHNAGIPVVIDAAQALGHLDCNVGADAVYSSSRKWLAGPRGVGVLAVRPELAERLQPRIPPSDWPIPMSVLEKLELGEHNAAARVGFSVAVGEHLAAGPTAVRERLAEVGRLSRQVLAEVDGWRVVEPVDQPTAITTLESTDGADPASVRSWLIAERGIVTTACELARAPFEMRTPVLRISPHVDVTVDELEQFAAALREAP
notes: cloning details in supplement
Consider B1, for which, in data set [1], the Km is 121.2 ± 6.6 µM and the kcat was determined as 25.27 ± 0.45 s⁻¹. Besides, in data set [2], the Km was determined as 1960 ± 250 µM and the kcat stood at 7.93 ± 0.05 s⁻¹.
